The values below are quoted from earlier work in patent US5474978A, “Insulin analog formulations” (Eli Lilly and Company, priority 1994, dated 1995).

The conditions of the data set: compared with Zn-insulin.
Ala^B28 Pro^B29 -hI: the Zn-induced association result was “little or no Zn-induced association”.

For the substance Ala^B28 insulin, the Zn-induced association entry is “demonstrate Zn-induced association, but less than Zn-insulin”.

Turning to Asp^B28 Pro^B29 -hI, the Zn-induced association entry is on record as “little or no Zn-induced association”.

In the case of Asp^B28 insulin, the Zn-induced association result is “demonstrate Zn-induced association, but less than Zn-insulin”.

In the case of Lys^B28 insulin, the Zn-induced association result is listed as “demonstrate Zn-induced association, but less than Zn-insulin”.

Consider Pro^B29 insulin, for which the Zn-induced association entry is “demonstrate Zn-induced association, but less than Zn-insulin”.
